According to patent US20250076311A1 (Chugai, published 2025):
Where a chain is given by its changes, count along the chain named. One block for each binder: values may come before it.

Assays:
[1] = biological target: T1, cynomolgus monkey FcγRIIa2 extracellular domain, His-tagged (cynomolgus monkey); assay: SPR Biacore, antibody captured, FcgR analyte
T1 construct: also called cyno FcγRIIa2; cynoFcgRIIa2; not shown: C-terminal His-tag
T1 chain: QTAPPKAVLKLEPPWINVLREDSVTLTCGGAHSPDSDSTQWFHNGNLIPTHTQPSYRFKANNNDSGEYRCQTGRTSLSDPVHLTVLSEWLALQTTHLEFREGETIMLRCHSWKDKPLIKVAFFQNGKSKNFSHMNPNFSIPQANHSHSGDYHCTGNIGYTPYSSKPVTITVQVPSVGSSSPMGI

[2] = biological target: T2, cynomolgus monkey FcγRIIIaS extracellular domain with C-terminal His-tag (cynomolgus monkey, UniProt Q8SPW2 21-206 at identity 1.00)); assay: SPR; KD of SG1 / KD of variant
T2 construct: also called cyno FcγRIIIaS; FcgRIIIaS
T2 chain: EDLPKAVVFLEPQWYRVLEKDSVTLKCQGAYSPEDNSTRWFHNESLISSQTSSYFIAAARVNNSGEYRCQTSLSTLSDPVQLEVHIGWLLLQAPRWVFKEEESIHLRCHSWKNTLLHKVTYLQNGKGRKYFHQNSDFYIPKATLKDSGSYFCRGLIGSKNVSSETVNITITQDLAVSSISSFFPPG

[3] = biological target: T3, cynomolgus monkey FcγRIIb extracellular domain with C-terminal His-tag (cynomolgus monkey); assay: SPR; KD of SG1 / KD of variant
T3 construct: also called cyno FcγRIIb; cynoFcγRIIb
T3 chain: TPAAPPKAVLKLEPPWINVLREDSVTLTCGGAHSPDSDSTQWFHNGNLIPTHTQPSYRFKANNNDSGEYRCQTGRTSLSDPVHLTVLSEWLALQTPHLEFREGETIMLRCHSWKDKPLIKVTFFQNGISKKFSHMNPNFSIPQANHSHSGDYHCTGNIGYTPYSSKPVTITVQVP

[4] = biological target: T4, cynomolgus monkey FcγRIIIaS extracellular domain with C-terminal His-tag (cynomolgus monkey, UniProt A3RFZ7 21-206 (rhesus entry)); assay: SPR Biacore, antibody captured, FcgR analyte
T4 construct: also called cyno FcgRIIIaS; cynoFcγRIIIaS; not shown: His-tag added to C-terminus

[5] = biological target: T5, cynomolgus monkey FcγRIIa3 extracellular domain with C-terminal His-tag (cynomolgus monkey); assay: SPR Biacore, antibody captured, FcgR analyte
T5 construct: also called cyno FcgRIIa3; cynoFcγRIIa3; not shown: His-tag added to C-terminus
T5 chain: T1 chain with K127I, N130K, H133P, Q142R

[6] = biological target: T6, cynomolgus monkey FcγRIIa2 extracellular domain with C-terminal His-tag (cynomolgus monkey); assay: SPR Biacore, antibody captured, FcgR analyte
T6 construct: also called cyno FcgRIIa2; cynoFcγRIIa2; not shown: His-tag added to C-terminus
T6 chain: T1 chain

[7] = biological target: T7, human FcγRIIaH extracellular domain with C-terminal His-tag (human, UniProt P12318 34-217); assay: SPR Biacore, antibody captured, FcgR analyte
T7 construct: also called human FcgRIIaH; FcγRIIa (type H); not shown: His-tag added to C-terminus
T7 sequence: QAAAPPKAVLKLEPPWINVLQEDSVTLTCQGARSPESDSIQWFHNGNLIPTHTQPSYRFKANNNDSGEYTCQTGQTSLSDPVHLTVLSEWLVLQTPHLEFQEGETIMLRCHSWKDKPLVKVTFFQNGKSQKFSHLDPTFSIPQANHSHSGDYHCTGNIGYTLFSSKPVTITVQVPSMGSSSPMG

[8] = biological target: T8, human FcγRIIaR extracellular domain with C-terminal His-tag (human, UniProt P12318 34-217); assay: SPR; KD of SG1 / KD of variant
T8 construct: also called human FcγRIIa (type R); FcgRIIaR
T8 chain: T7 sequence with H134R

[9] = biological target: T9, cynomolgus monkey FcγRIIa3 extracellular domain with C-terminal His-tag (cynomolgus monkey); assay: SPR; KD of SG1 / KD of variant
T9 construct: also called cyno FcγRIIa3; FcgRIIa3
T9 chain: T1 chain with K127I, N130K, H133P, Q142R

[10] = biological target: T10, human FcγRIIb extracellular domain with C-terminal His-tag (human, UniProt P31994 43-217); assay: SPR, KD(parent SG1)/KD(variant)
T10 construct: also called human FcgRIIb
T10 sequence: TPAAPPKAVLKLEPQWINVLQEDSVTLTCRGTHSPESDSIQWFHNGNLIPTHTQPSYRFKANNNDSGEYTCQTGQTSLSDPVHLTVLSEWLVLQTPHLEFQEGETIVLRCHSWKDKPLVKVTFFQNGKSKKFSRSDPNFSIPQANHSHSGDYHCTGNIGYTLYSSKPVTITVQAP

[11] = biological target: T11, cynomolgus monkey FcγRIIIaS extracellular domain with C-terminal His-tag (cynomolgus monkey, UniProt Q8SPW2 21-206 at identity 1.00)); assay: SPR, KD(parent SG1)/KD(variant)
T11 construct: also called cyno FcgRIIIaS; cynoFcγRIIIaS
T11 chain: T2 chain

[12] = biological target: T12, human FcγRIIb extracellular domain with C-terminal His-tag (human, UniProt P31994 43-217); assay: SPR Biacore, antibody captured, FcgR analyte
T12 construct: also called human FcgRIIb; not shown: His-tag added to C-terminus
T12 sequence: T10 sequence

[13] = biological target: T13, human FcγRIIaR extracellular domain with C-terminal His-tag (human, UniProt P12318 34-217); assay: SPR Biacore, antibody captured, FcgR analyte
T13 construct: also called human FcgRIIaR; FcγRIIa (type R); not shown: His-tag added to C-terminus
T13 chain: T7 sequence with H134R

[14] = biological target: T14, human FcγRIIIaV extracellular domain with C-terminal His-tag (human, UniProt P08637 17-208); assay: SPR Biacore, antibody captured, FcgR analyte
T14 construct: also called human FcgRIIIaV; not shown: His-tag added to C-terminus
T14 sequence (P08637 17-208 F176V): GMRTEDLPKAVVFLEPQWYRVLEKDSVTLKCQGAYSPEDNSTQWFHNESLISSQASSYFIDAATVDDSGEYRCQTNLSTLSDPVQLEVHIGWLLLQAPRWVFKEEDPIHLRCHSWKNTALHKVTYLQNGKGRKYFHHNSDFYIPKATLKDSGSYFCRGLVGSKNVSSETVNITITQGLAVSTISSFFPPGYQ

[15] = biological target: T15, human FcγRIIaR extracellular domain with C-terminal His-tag (human, UniProt P12318 34-217); assay: SPR (Biacore), KD of SG1 divided by KD of variant
T15 construct: also called human FcgRIIaR; FcγRIIa (type R)
T15 chain: T7 sequence with H134R
Description: The kinetic analysis of interactions between these antibodies and FcγR was carried out using BIACORE® T200 or BIACORE® 4000 (GE Healthcare). HBS-EP+ (GE Healthcare) was used as the running buffer, and the measurement temperature was set to 25° C. […] After the measurement, the antibody captured on the chip was washed off by allowing reaction with 10 mM glycine-HCl, pH1.5 and 25 mM NaOH so that the chip was regenerated and used repeatedly. The sensorgrams obtained as measurement results were analyzed by the 1:1 Langmuir binding model using the BIACORE® Evaluation Software to calculate the binding rate constant ka (L/mol/s) and dissociation rate constant kd (1/s), and the dissociation constant KD (mol/L) was calculated from these values. […] Regarding such interactions, KD values were calculated using the following 1:1 binding model described in BIACORE® T100 Software Handbook BR1006-48 Edition AE.

B1: M103205H795-MY006/M103202L889-SK1 (antibody, human IgG1, kappa, name in EU numbering)
heavy: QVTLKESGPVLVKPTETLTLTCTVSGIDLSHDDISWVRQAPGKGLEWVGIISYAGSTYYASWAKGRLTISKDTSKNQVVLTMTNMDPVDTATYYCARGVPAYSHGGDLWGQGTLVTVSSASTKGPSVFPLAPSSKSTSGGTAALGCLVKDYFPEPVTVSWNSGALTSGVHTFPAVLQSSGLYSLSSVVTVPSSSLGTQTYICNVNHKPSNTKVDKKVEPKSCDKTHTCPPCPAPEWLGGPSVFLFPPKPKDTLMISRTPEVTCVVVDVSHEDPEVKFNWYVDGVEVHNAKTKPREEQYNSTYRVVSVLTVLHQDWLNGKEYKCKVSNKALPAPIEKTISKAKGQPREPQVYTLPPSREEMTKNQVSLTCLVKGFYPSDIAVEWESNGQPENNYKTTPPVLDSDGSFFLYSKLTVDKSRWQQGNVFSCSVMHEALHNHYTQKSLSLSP
light: DIVMTQSPATLSLSPGERATLSCTSSQSVYHANWLSWFQQKPGQPPKLLIYWASTLAYGVPSRFSGSGSGTDFTLTISSLQPEDAATYYCAGGYGGGRYAFGQGTKVEIKRTVAAPSVFIFPPSDEQLKSGTASVVCLLNNFYPREAKVQWKVDNALQSGNSQESVTEQDSKDSTYSLSSTLTLSKADYEKHKVYACEVTHQGLSSPVTKSFNRGEC
notes: Substitution introduced into M103205H795-SG1; EU numbering
Kd [1]: 1900 nM

B3: M103205H795-MY172/M103202L889-SK1 (antibody, human IgG1, kappa, name in EU numbering)
heavy: QVTLKESGPVLVKPTETLTLTCTVSGIDLSHDDISWVRQAPGKGLEWVGIISYAGSTYYASWAKGRLTISKDTSKNQVVLTMTNMDPVDTATYYCARGVPAYSHGGDLWGQGTLVTVSSASTKGPSVFPLAPSSKSTSGGTAALGCLVKDYFPEPVTVSWNSGALTSGVHTFPAVLQSSGLYSLSSVVTVPSSSLGTQTYICNVNHKPSNTKVDKKVEPKSCDKTHTCPPCPAPELLNGPSVFLFPPKPKDTLMISRTPEVTCVVVDVSEEDPEVKFNWYVDGVEVHNAKTKPREEQYNSTYRVVSVLTVLHQDWLNGKEYKCKVSNKALPAPIEKTISKAKGQPREPQVYTLPPSREEMTKNQVSLTCLVKGFYPSDIAVEWESNGQPENNYKTTPGVLDSDGSFFLYSKLTVDKSRWQQGNVFSCSVMHEALHNHYTQKSLSLSP
light: B1 light
notes: EU numbering
KD fold (SG1 = 1) [4]: 0.17 fold | Kd [4]: 3500 nM | Kd [5]: 1100 nM | KD fold (SG1 = 1) [6]: 1.8 fold | Kd [6]: 2800 nM | Kd [7]: 1700 nM

B6: M103205H795-MY177/M103202L889-SK1 (antibody, human IgG1, kappa, name in EU numbering)
heavy: B3 heavy with G398N
light: B1 light
notes: EU numbering
KD fold (SG1 = 1) [4]: 0.12 fold | Kd [4]: 2900 nM | Kd [12]: 1100 nM | KD fold (SG1 = 1) [13]: 0.1 fold | Kd [13]: 2000 nM | Kd [7]: 1000 nM

B7: M103205H795-MY178/M103202L889-SK1 (antibody, human IgG1, kappa, name in EU numbering)
heavy: B3 heavy with G398Q
light: B1 light
notes: EU numbering
KD fold (SG1 = 1) [4]: 0.17 fold | Kd [4]: 3000 nM | Kd [12]: 1300 nM | KD fold (SG1 = 1) [14]: 0.15 fold | KD fold (SG1 = 1) [7]: 0.6 fold

B10: M103205H795-MY210/M103202L889-SK1 (antibody, human IgG1, kappa, name in EU numbering)
heavy: B3 heavy with E270D, K328T, A332K, G398P
light: B1 light
notes: substitutions in EU numbering, introduced into M103205H795-SG1
KD fold (SG1 = 1) [4]: 0.15 fold | KD fold (SG1 = 1) [6]: 6.1 fold | KD fold (SG1 = 1) [14]: 0.03 fold | KD fold (SG1 = 1) [7]: 0.8 fold

B12: M103205H795-MY179/M103202L889-SK1 (antibody, human IgG1, kappa, name in EU numbering)
heavy: B3 heavy with G398R
light: B1 light
notes: EU numbering
KD fold (SG1 = 1) [4]: 0.13 fold | Kd [4]: 2700 nM | Kd [12]: 1200 nM | KD fold (SG1 = 1) [6]: 2.8 fold | Kd [7]: 1100 nM

Next, values leading:

KD fold (SG1 = 1) [2]: 0.3 fold | KD fold (SG1 = 1) [3]: 5.6 fold
B2: M103205H795-MY276 (heavy chain) with M103202L889-SK1 (light chain) (antibody, human IgG1, kappa, name in EU numbering)
heavy: B3 heavy with N238I, E270D, A332K, G398K
light: B1 light
notes: Substitutions introduced into M103205H795-SG1; positions in EU numbering

KD fold (SG1 = 1) [8]: 1 fold | KD fold (SG1 = 1) [2]: 0.15 fold | KD fold (SG1 = 1) [3]: 0.9 fold | KD fold (SG1 = 1) [9]: 0.8 fold
B4: M103205H795-MY316 (heavy chain) with M103202L889-SK1 (light chain) (antibody, human IgG1, kappa, name in EU numbering)
heavy: B3 heavy with N238L, Q297L, A332K, G398K
light: B1 light
notes: as for B2

KD fold (SG1 = 1) [10]: 5.7 fold | KD fold (SG1 = 1) [11]: 0.07 fold
B5: MS1032LO19-SG1071 (antibody)
heavy: QVQLVESGGGLVQPGGSLRLSCAVSGIDLSHDDISWVRQAPGKGLEWVSIISYAGSTYYASWAKGRLTISKDTSKNQVVLTMTNMDPVDTATYYCARGVPAYSHGGDLWGQGTLVTVSSASTKGPSVFPLAPSSKSTSGGTAALGCLVKDYFPEPVTVSWNSGALTSGVHTFPAVLQSSGLYSLSSVVTVPSSSLGTQTYICNVNHKPSNTKVDKKVEPKSCDKTHTCPPCPAPELLNGPSVFLFPPKPKDTLMISRTPEVTCVVVDVSDEDPEVKFNWYVDGVEVHNAKTKPREELYNSTYRVVSVLTVLHRDWLNGKEYKCKVSNKALPKPIEKTISKAKGQPREPQVYTLPPSREEMTKNQVSLTCLVKGFYPSDIAVEWESNGQPENNYKTTPPVLDSDGSFFLYSKLTVKKSRWQQGNVFSCSVLHEALHAHTTRKELSLSP
light: B1 light with S25T, A32E
notes: tied to rows r14/r32 by row order only; also called MS103240H795-SG1071; copies: 2 + 2

KD fold (SG1 = 1) [8]: 4.2 fold | KD fold (SG1 = 1) [2]: 0.3 fold | KD fold (SG1 = 1) [3]: 2.5 fold
B8: M103205H795-MY309 (heavy chain) with M103202L889-SK1 (light chain) (antibody, human IgG1, kappa, name in EU numbering)
heavy: B3 heavy with N238T, A332K, G398M
light: B1 light
notes: as for B2

KD fold (SG1 = 1) [15]: 6.9 fold
B9: M103205H795-MY525 / M103202L889-SK1 (antibody, human IgG1, kappa, name in EU numbering)
heavy: B3 heavy with A233T, N238T, S241V, E270D, A332K, G398P
light: B1 light

KD fold (SG1 = 1) [4]: 0.07 fold | KD fold (SG1 = 1) [5]: 1 fold | KD fold (SG1 = 1) [12]: 1.8 fold | KD fold (SG1 = 1) [13]: 0.3 fold | KD fold (SG1 = 1) [7]: 0.8 fold
B11: M103205H795-MY289/M103202L889-SK1 (antibody, human IgG1, kappa, name in EU numbering)
heavy: B3 heavy with E270H, A332K, G398M
light: B1 light
notes: as for B10
